According to publication PMC5302818:

T1: BAK1-CFP (Arabidopsis), Q94F62
T1 chain: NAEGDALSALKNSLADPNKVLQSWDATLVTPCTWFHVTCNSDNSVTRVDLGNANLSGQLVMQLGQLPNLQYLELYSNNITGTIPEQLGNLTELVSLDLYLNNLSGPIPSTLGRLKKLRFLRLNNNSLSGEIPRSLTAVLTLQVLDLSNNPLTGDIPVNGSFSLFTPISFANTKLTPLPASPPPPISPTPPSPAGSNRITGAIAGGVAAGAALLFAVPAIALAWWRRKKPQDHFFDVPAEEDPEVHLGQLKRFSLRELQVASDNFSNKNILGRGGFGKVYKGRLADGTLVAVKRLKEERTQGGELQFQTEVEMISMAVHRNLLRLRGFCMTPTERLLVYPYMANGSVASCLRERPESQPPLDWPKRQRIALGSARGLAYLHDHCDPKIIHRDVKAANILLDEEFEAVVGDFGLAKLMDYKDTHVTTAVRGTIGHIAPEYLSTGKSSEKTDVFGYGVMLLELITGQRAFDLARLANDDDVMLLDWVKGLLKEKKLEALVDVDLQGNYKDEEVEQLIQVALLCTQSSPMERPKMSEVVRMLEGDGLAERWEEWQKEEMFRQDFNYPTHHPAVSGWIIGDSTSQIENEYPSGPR

B1: AtRGS1-YFP (natural protein)
chain: MASGCALHGGCPSDYVAVAISVICFFVLLSRSVLPCLIHKAPRTNSSSFWIPVIQVISSFNLLFSIMMSVNLLRFRTKHWWRYCYLWAVWIEGPLGFGLLMSCRITQAFQLYFIFVKKRLPPVKSYIFLPLVLLPWIFGAAIIHATKPLNDKCHMGLQWTFPVAGLHALYVLALIAFTRAVRHVEFRFDELRDLWKGILVSATSIVIWVTAFVLNEIHEEISWLQVASRFVLLVTGGILVVVFFSISSNQPLLSQISLKKRQNFEFQRMGQALGIPDSGLLFRKEEFRPVDPNEPLDKLLLNKRFRHSFMEFADSCYAGETLHFFEEVYEHGKIPEDDSIRRIYMARHIMEKFIVAGAEMELNLSHKTRQEILTTQDLTHTDLFKNALNEVMQLIKMNLVRDYWSSIYFIKFKEEESCHEAMHKEGYSFSSPRLSSVQGSDDPFYQEHMSKSSRCSSPG
B2: AtRGS1-YFP, Q8H1F2 1-459 (natural protein)
chain: B1 chain

Legend:
[1] = molecular target: BIR1-CFP (Arabidopsis); test: cross number and brightness (Cross N&B) fluorescence fluctuation analysis; leaf disks of N. benthamiana transiently expressing AtRGS1-YFP with BIR1-CFP or BAK1-CFP; time series of 100 confocal images; SimFCS analysis
[2] = molecular target: T1, BAK1-CFP (Arabidopsis), Q94F62; test: as above; settings: remark: other sources report otherwise

| Binder | stoichiometry N [1] | stoichiometry N [2] |
| --- | --- | --- |
| B1 | 1 | – |
| B2 | – | 1 |
